Results as given in FireProtDB (doi:10.1042/bj2870481).

Conditions: Aspergillus oryzae (strain ATCC 42149 / RIB 40), 25 °C, GdnHCl, Absorbance, Unknown, KCl 0.1 M, reversible: yes, whole UniProt chain shown

B1: Guanyl-specific ribonuclease T1 wild type, P00651 (protein)
chain: MMYSKLLTLTTLLLPTALALPSLVERACDYTCGSNCYSSSDVSTAQAAGYQLHEDGETVGSNSYPHKYNNYEGFDFSVSSPYYEWPILSSGDVYSGGSPGADRVVFNENNQLAGVITHTGASGNNFVECT
Question: For B1, which denaturant m value (pH 1.3) is on record?
Answer: The denaturant m value was 2.03 kcal/mol/M.

Question: And the “denaturant midpoint (higher = more stable)” value (“denaturant midpoint” below) (pH 1.3)?
Answer: The value was 0.93 M.

Question: What about the unfolding free energy (pH 1.3) of the same protein?
Answer: The unfolding free energy was 1.9 kcal/mol.

Question: And the denaturant m value (pH 3)?
Answer: Its denaturant m value is 2.91 kcal/mol/M.

Question: And the “denaturant midpoint” value (pH 3)?
Answer: The value was 1.94 M.

Question: And the unfolding free energy (pH 3)?
Answer: Its unfolding free energy is 5.66 kcal/mol.

Question: What about the denaturant m value (pH 7) of the same protein?
Answer: The denaturant m value was 2.93 kcal/mol/M.

Question: What about the “denaturant midpoint” value (pH 7) of the same protein?
Answer: Its value is 2.97 M.

Question: What about the unfolding free energy (pH 7) of the same protein?
Answer: The unfolding free energy was 8.74 kcal/mol.
